To fix the notation:
B1: 12-D8 (Fab, V domains shown)
VH: QVQLVQSGAEVKKPGASVKVSCKASGYTFTNYDIIWVRQAPGQGLEWMGYINPYNGRREYNEKFKGRVTMTRDTSTSTVYMELSSLRSEDTAVYYCARLLKYRRFRYYAIDYWGQGTTVTVSS
VL: DIQMTQSPSSLSASVGDRVTITCRASENVYSNTAWYQQKPGKAPKLLIYAASNLQSGVPSRFSGSGSGTDYTFTISSLQPEDIATYYCQHFWGSPFTFGQGTKLEIK
notes: Fab
B2: A6-11 (Fab, V domains shown)
VH: B1 VH with G56R, R58T
VL: B1 VL with R24H, T33L
notes: Fab
B3: 16-F4 (Fab, V domains shown)
VH: B1 VH with G56D, R57G, R58T, E59K
VL: B1 VL with T33L, Q55A, S56D, Y71F, G93T
notes: Fab
B4: 15-G6 (Fab, V domains shown)
VH: B1 VH with G56D, R57G, R58T, E59K, R106K
VL: B1 VL with A25T, T33L, Y71F, H90Q, G93Y
notes: Fab
B5: 12-E9 (Fab, V domains shown)
VH: B1 VH with G56D, R57G, R58T, E59K, G66Y
VL: B1 VL with N28S, S31N, T33L, Y71F
notes: Fab
B6: 16-C3 (Fab, V domains shown)
VH: B1 VH with G56D, R57G, R58T, E59K
VL: B1 VL with T33L, Y71F, H90Q, G93Y
notes: Fab
B7: 12-H6 (Fab, V domains shown)
VH: B1 VH with G56R
VL: B1 VL with S31R, T33L
notes: Fab
B8: 13-B2 (Fab, V domains shown)
VH: B1 VH
VL: B1 VL with E27K, N28P, T33L
notes: Fab
B9: 13-C11 (Fab, V domains shown)
VH: B1 VH
VL: B1 VL with N32H, T33L
notes: Fab
B10: 12-E5 (Fab, V domains shown)
VH: B1 VH
VL: B1 VL with N28P, T33L, Y71F
notes: Fab
B11: 16-A10 (Fab, V domains shown)
VH: B1 VH with G56D, R57G, R58T, E59K
VL: B1 VL with A25T, T33L, Y71F, G93Y, F96W
notes: Fab
B12: 14-A6 (Fab, V domains shown)
VH: B1 VH with G56R
VL: B1 VL with R24H, T33L, Y71F
notes: Fab
B13: 14-B1 (Fab, V domains shown)
VH: B1 VH with G56D, R57G, E59K, Y60E
VL: B1 VL with N28P, T33L
notes: Fab
B14: 15-H1 (Fab, V domains shown)
VH: B1 VH with G56D, R57G, R58T, E59K, R103A, R104C, Y107E, Y108E
VL: B1 VL with T33L, Y71F, G93E
notes: Fab
B15: 12-E11 (Fab, V domains shown)
VH: B1 VH
VL: B1 VL with N28P, S31N, T33L, G93Y
notes: Fab
B16: 13-C6 (Fab, V domains shown)
VH: B1 VH
VL: B1 VL with N28P, T33V, Y71F
notes: Fab
B17: 13-B3 (Fab, V domains shown)
VH: B1 VH
VL: B1 VL with S31N, T33L
notes: Fab
B18: 16-E4 (Fab, V domains shown)
VH: B1 VH with G56D, R57G, R58T, E59K
VL: B1 VL with T33L, Y71F, G93Y, F96W
notes: Fab
B19: 16-D6 (Fab, V domains shown)
VH: B1 VH with G56D, R57G, R58T, E59K, R106K
VL: B1 VL with T33L, Q55A, S56D, Y71F, H90D, G93Y
notes: Fab
B20: T1-HuC1 (Fab, V domains shown)
VH: B1 VH with G56D, R57G, R58T, E59K, R106S
VL: B1 VL with T33L, Q55A, S56D, Y71F, G93Y
notes: Fab
B21: 16-H4 (Fab, V domains shown)
VH: B1 VH with G56D, R57G, R58T, E59K
VL: B1 VL with A25T, N28S, T33L, Y71F, G93A
notes: Fab
B22: A6-10 (Fab, V domains shown)
VH: B1 VH with G56R, R57G
VL: B1 VL with R24H, T33L
notes: Fab
B23: 16-G9 (Fab, V domains shown)
VH: B1 VH with G56D, R57G, R58T, E59K
VL: B1 VL with T33L, Y71F, G93Y, T97G
notes: Fab
B24: 13-H6 (Fab, V domains shown)
VH: B1 VH with G56D, R57G, E59K, Y60E
VL: B1 VL with N32H, T33L, W92V, G93Y
notes: Fab
B25: 16-A6 (Fab, V domains shown)
VH: B1 VH with G56D, R57G, R58T, E59K
VL: B1 VL with A25T, T33L, Q55A, S56D, Y71F, G93A
notes: Fab
B26: 16-C1 (Fab, V domains shown)
VH: B1 VH with G56D, R57G, R58T, E59K, R106K
VL: B1 VL with T33L, Y71F, G93Y, F96W
notes: Fab
B27: 13-F12 (Fab, V domains shown)
VH: B1 VH
VL: B1 VL with S31R, T33L
notes: Fab
B28: 16-B7 (Fab, V domains shown)
VH: B1 VH with G56D, R57G, R58T, E59K
VL: B1 VL with T33L, Q55A, S56D, Y71F, G93A
notes: Fab
B29: 13-C5 (Fab, V domains shown)
VH: B1 VH
VL: B1 VL with N28P, T33L
notes: Fab
B30: 13-C12 (Fab, V domains shown)
VH: B1 VH
VL: B1 VL with S31R, T33L, W92V, G93Y
notes: Fab
B31: 13-C7 (Fab, V domains shown)
VH: B1 VH
VL: B1 VL with N28P, T33L, G93Y
notes: Fab
B32: 13-B4 (Fab, V domains shown)
VH: B1 VH with G56D, R57G, E59K, Y60E
VL: B1 VL with S31M, T33L, G93Y
notes: Fab
B33: 13-D5 (Fab, V domains shown)
VH: B1 VH
VL: B1 VL with Y30T, T33L
notes: Fab
B34: 13-H3 (Fab, V domains shown)
VH: B1 VH with G56D, R57G, E59K, Y60E
VL: B1 VL with T33L
notes: Fab
B35: 13-A12 (Fab, V domains shown)
VH: B1 VH with G56D, R57G, E59K, Y60E
VL: B1 VL with S31R, T33L, G93Y
notes: Fab
B36: A6-9 (Fab, V domains shown)
VH: B1 VH with G56D, E59R
VL: B1 VL with R24H, T33L
notes: Fab

Numbering of substitutions follows the chain as printed.

Sequence of TrkB (Q16620 32-430 limits assumed): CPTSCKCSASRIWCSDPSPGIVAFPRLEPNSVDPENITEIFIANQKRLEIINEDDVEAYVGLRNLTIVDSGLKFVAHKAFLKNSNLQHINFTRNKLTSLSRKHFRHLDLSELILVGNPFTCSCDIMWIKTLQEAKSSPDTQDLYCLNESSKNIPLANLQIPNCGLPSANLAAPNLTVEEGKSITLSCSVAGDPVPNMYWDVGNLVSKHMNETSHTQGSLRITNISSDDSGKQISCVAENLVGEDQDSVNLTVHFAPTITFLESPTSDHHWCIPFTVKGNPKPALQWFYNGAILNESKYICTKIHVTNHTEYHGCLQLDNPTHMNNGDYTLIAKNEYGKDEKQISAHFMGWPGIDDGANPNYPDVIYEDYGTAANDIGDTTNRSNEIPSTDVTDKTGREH

The assay has as its target TrkB (Homo sapiens (Human), UniProt Q16620 32-430). In words: koff of Fab at 25 C; T1/2=Log2/koff. The method, boiled down: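 Monovalent Fab fragments were tested at 25° C by surface plasmon resonance on a Biacore instrument, against TrkB extracellular-domain monomer amine-coupled to the chip at low capacity. Fabs were injected low to high as a 3-fold serial dilution from 100 nM for 84 sec, with a 10 minute dissociation after the top sample. The dissociation half-life was calculated from koff, which was fitted to a Langmuir binding model in BIAevaluation. The formula used was T1/2 = Log 2/koff.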
Take B1: the T1/2 is 10 min.
Molecule B2 showed a T1/2 of 9.9 min.
Then B3, with 5 min; and B4, with 1.8 min.
Then B5, with 3.5 min.
To B6 belongs 1 min; to B7, 12 min; to B8, 13 min.
The molecule B9 registered a T1/2 of 13 min.
Then B10, with 7.5 min; and B11, with 6 min; and B12, with 2.8 min.
Then B13, with 13 min.
As to B14, the T1/2 came to 2.1 min.
To B15 belongs 11 min; to B16, 4.8 min; to B17, 13 min.
B18 registered a T1/2 of 7 min.
Then B19, with 1 min; and B20, with 1.7 min.
To B21 belongs 6 min; to B22, 4 min.
For the molecule B23, the T1/2 turned out to be 4 min.
Then B24, with 13 min; and B25, with 1 min.
Then B26, with 6 min; and B27, with 13 min.
For B28, the T1/2 was 5 min.
B29 registered a T1/2 of 13 min.
To B30 belongs 13 min; to B31, 13 min.
To B32 belongs 13 min.
Then B33, with 13 min; and B34, with 13 min.
B35 registered a T1/2 of 13 min.
B36 registered a T1/2 of 11.8 min.

These data come from US20100196390A1 (RINAT NEUROSCIENCE, published 2010).
